Here are results for three molecules from patent publication US20160369002A1 (INNATE PHARMA, published 2016).

In assay [1] the target is T1, Human NKp46 recombinant protein (human, UniProt O76036 22-258).
T1 construct: also called recombinant human NKp46 proteins
As to the kind of experiment: SPR (Biacore T100), bispecific captured on Protein-A chip, soluble recombinant human NKp46. The protocol:
SPR measurements were performed on a Biacore T100 apparatus (Biacore GE Healthcare) at 25° C. In all Biacore experiments HBS-EP+ (Biacore GE Healthcare) and NaOH 10 mM served as running buffer and regeneration buffer respectively. Sensorgrams were analyzed with Biacore T100 Evaluation software. Protein-A was purchased from (GE Healthcare). Human NKp46 recombinant proteins were cloned, produced and purified at Innate Pharma.
The chip surface was activated with EDC/NHS (N-ethyl-N′-(3-dimethylaminopropyl) carbodiimidehydrochloride and N-hydroxysuccinimide (Biacore GE Healthcare)). Protein-A was diluted to 10 μg/ml in coupling buffer (10 mM acetate, pH 5.6) and injected until the appropriate immobilization level was reached (i.e. 2000 RU). Deactivation of the remaining activated groups was performed using 100 mM ethanolamine pH 8 (Biacore GE Healthcare).
Seven serial dilutions of human NKp46 recombinant proteins, ranging from 6.25 to 400 nM were sequentially injected over the captured Bi-Specific antibodies and allowed to dissociate for 10 min before regeneration. The entire sensorgram sets were fitted using the 1:1 kinetic binding model.
(In SPR one partner is held on a chip, and binding of the other changes the refractive index at the surface.)

In assay [2] the target is T2, Human CD64 (human, UniProt P12314 16-288, limits assumed).
T2 construct: also called FcγRI
T2 sequence (P12314 16-288 limits assumed): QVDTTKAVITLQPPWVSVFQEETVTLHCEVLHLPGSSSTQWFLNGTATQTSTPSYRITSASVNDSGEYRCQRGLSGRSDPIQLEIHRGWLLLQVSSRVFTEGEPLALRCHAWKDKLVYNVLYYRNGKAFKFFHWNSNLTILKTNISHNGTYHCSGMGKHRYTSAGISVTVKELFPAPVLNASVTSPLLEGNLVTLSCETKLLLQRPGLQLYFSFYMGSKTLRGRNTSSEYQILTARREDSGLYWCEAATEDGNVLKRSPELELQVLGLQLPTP
Kind of assay: SPR (Biacore T100), bispecific immobilised on CM5 chip, soluble CD64 0.7-60 nM, 1:1 kinetic model. The procedure:
(§1) SPR measurements were performed on a Biacore T100 apparatus (Biacore GE Healthcare) at 25° C. In all Biacore experiments HBS-EP+ (Biacore GE Healthcare) and 10 mM NaOH, 500 mM NaCl served as running buffer and regeneration buffer respectively. Sensorgrams were analyzed with Biacore T100 Evaluation software. Recombinant human FcR's (CD64, CD32a, CD32b, CD16a and CD16b) were cloned, produced and purified.
(§2) The chip surface was activated with EDC/NHS (N-ethyl-N′-(3-dimethylaminopropyl) carbodiimidehydrochloride and N-hydroxysuccinimide (Biacore GE Healthcare)). Bispecific antibodies were diluted to […] in coupling buffer (10 mM acetate, pH 5.6) and injected until the appropriate immobilization level was reached (i.e. 800 to 900 RU). Deactivation of the remaining activated groups was performed using 100 mM ethanolamine pH 8 (Biacore GE Healthcare).
(§3) Monovalent affinity study was assessed following a classical kinetic wizard (as recommended by the manufacturer). Serial dilutions of soluble analytes (FcRs) ranging from 0.7 to 60 nM for CD64 and from 60 to 5000 nM for all the other FcRs were injected over the immobilized bispecific antibodies and allowed to dissociate for 10 min before regeneration. The entire sensorgram sets were fitted using the 1:1 kinetic binding model for CD64 and with the Steady State Affinity model for all the other FcRs.

In assay [3] the target is T3, Human CD32a (human, UniProt P12318 36-218, limits assumed).
T3 construct: also called FcγRIIA
T3 sequence (looked up): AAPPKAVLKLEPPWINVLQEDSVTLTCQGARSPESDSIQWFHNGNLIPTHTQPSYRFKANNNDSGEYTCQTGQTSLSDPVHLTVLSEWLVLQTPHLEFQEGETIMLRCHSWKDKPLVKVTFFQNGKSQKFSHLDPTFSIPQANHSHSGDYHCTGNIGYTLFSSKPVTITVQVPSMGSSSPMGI
Kind of assay: SPR (Biacore T100), bispecific immobilised on CM5 chip, soluble FcR 60-5000 nM, Steady State Affinity model. The procedure: as §1, §2, §3

Assay [4] deals with T4, Human CD32b (human, UniProt P31994 46-217, limits assumed).
T4 construct: also called FcγRIIB
T4 sequence (looked up): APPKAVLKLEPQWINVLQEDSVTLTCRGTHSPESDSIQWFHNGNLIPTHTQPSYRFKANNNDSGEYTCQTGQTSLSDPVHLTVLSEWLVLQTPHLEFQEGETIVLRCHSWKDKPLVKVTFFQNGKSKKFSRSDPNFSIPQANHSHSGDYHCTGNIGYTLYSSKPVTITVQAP
Described as above. The protocol: as §1, §2, §3

Assay [5] addresses T5, Human CD16a (human, UniProt P08637 17-208).
T5 construct: also called FcγRIIIa
The description is as above. The protocol:
as §1, §2, §3

Assay [6] addresses T6, Human CD16b (human, UniProt O75015 17-200).
T6 construct: also called FcγRIIIb
The assay is described as above. The procedure:
as §1, §2, §3

In assay [7] the target is T2, Human CD64. Kind of assay: SPR (Biacore T100), bispecific immobilised on CM5 chip, soluble FcR. The protocol:
as §1, §2, §3

For assay [8], the target named is T3, Human CD32a. The assay is described as above. The procedure: as §1, §2, §3
Assay [9] deals with T4, Human CD32b. The description is as above. The procedure:
as §1, §2, §3

The target in assay [10] is T5, Human CD16a. The assay is described as above. The protocol: as §1, §2, §3
Assay [11] addresses T6, Human CD16b. Described as above. The protocol: as §1, §2, §3

T6 sequence (O75015 17-200 limits assumed): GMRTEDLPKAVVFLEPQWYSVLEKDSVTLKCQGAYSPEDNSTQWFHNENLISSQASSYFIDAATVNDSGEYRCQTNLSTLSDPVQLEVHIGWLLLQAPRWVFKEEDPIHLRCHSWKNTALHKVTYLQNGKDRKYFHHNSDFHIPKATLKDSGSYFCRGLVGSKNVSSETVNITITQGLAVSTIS
T5 sequence (P08637 17-208 limits assumed): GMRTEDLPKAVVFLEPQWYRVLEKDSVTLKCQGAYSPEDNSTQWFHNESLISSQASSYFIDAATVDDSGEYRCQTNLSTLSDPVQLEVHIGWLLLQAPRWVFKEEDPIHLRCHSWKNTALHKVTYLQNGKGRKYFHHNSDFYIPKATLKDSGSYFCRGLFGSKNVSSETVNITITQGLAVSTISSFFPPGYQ
T1 sequence (O76036 22-258 Q82K limits assumed): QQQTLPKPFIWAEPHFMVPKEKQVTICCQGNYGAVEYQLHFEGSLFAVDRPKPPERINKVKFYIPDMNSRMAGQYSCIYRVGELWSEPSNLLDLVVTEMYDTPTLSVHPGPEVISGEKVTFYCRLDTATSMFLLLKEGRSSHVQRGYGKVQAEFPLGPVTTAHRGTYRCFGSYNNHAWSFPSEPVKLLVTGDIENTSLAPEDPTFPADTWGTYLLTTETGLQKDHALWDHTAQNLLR

B1: CD19-F1-NKp46-6 (bispecific antibody)
chain: DIQLTQSPASLAVSLGQRATISCKASQSVDYDGDSYLNWYQQIPGQPPKLLIYDASNLVSGIPPRFSGSGSGTDFTLNIHPVEKVDAATYHCQQSTEDPWTFGGGTKLEIKGGGGSGGGGSGGGGSQVQLQQSGAELVRPGSSVKISCKASGYAFSSYWMNWVKQRPGQGLEWIGQIWPGDGDTNYNGKFKGKATLTADESSSTAYMQLSSLASEDSAVYFCARRETTTVGRYYYAMDYWGQGTTVTVSSGGGSSAPELLGGPSVFLFPPKPKDTLMISRTPEVTCVVVDVSHEDPEVKFNWYVDGVEVHNAKTKPREEQYNSTYRVVSVLTVLHQDWLNGKEYKCKVSNKALPAPIEKTISKAKGQPREPQVYTKPPSREEMTKNQVSLSCLVKGFYPSDIAVEWESNGQPENNYKTTVPVLDSDGSFRLASYLTVDKSRWQQGNVFSCSVMHEALHNHYTQKSLSLSPGSTGSQVQLQQPGSVLVRPGASVKLSCKASGYTFTSSWMHWAKQRPGQGLEWIGHIHPNSGISNYNEKFKGKATLTVDTSSSTAYVDLSSLTSEDSAVYYCARGGRFDDWGAGTTVTVSSVEGGSGGSGGSGGSGGVDDIVMTQSPATLSVTPGDRVSLSCRASQSISDYLHWYQQKSHESPRLLIKYASQSISGIPSRFSGSGSGSDFTLSINSVEPEDVGVYYCQNGHSFLMYTFGGGTKLEIK
notes: Single chain F1 format, complete mature protein
For B1, the binding result in assay [1] was “no binding”.

B2: CD19-F5-NKp46-3 (bispecific antibody, human IgG1, kappa)
chain 1: not shown
chain 2: not shown
chain 3: DIVMTQSPATLSVTPGDRVSLSCRASQSISDYLHWYQQKSHESPRLLIKYASQSISGIPSRFSGSGSGSDFTLSINSVEPEDVGVYYCQNGHSFPLTFGAGTKLELKASTKGPSVFPLAPSSKSTSGGTAALGCLVKDYFPEPVTVSWNSGALTSGVHTFPAVLQSSGLYSLSSVVTVPSSSLGTQTYICNVNHKPSNTKVDKRVEPKSCDKTH
For orientation: Kd means a measure of binding affinity in units of concentration. A lower Kd goes with a tighter complex. In the case of B2, the Kd in the assay with Human CD64 [2] was 0.7 nM; with Human CD32a [3], 846 nM; with Human CD32b [4], 1850 nM; with Human CD16a [5], 1100 nM; in the assay with Human CD16b [6], 2430 nM.

B3: CD19-F6-NKp46-3 (bispecific antibody, human IgG1, kappa)
chain 1: not shown
chain 2: not shown
chain 3: DIVMTQSPATLSVTPGDRVSLSCRASQSISDYLHWYQQKSHESPRLLIKYASQSISGIPSRFSGSGSGSDFTLSINSVEPEDVGVYYCQNGHSFPLTFGAGTKLELKASTKGPSVFPLAPSSKSTSGGTAALGCLVKDYFPEPVTVSWNSGALTSGVHTFPAVLQSSGLYSLSSVVTVPSSSLGTQTYICNVNHKPSNTKVDKRVEPKSCDKTH
Consider B3, for which the binding result with Human CD64 [7] was “no binding (tested: 0.7 to 60 nM)”; with Human CD32a [8] it was “no binding (tested: 60 to 5000 nM)”; in the assay with Human CD32b [9], “no binding (tested: 60 to 5000 nM)”; with Human CD16a [10], “no binding (tested: 60 to 5000 nM)”; in the assay with Human CD16b [11], “no binding (tested: 60 to 5000 nM)”.
